Data taken from paper PMC10107836 (Chembiochem, 2022).
Several values for one entry are separate records, joined by “and”; a condition that tells them apart may be missing. Equal values may be shown once.

Target: extraviral domain of SARS-CoV-2 spike protein (aa 1-1213) (SARS-CoV-2) (UniProt P0DTC2)
Experiment: SPR

**Q.** Which results are given for “pineapple-derived jacalin-related lectin AcmJRL (natural protein)”?
**A.** Kd: 3.3 µM and 11.1 µM; koff: 0.0034 s⁻¹; kon: 1060 M⁻¹ s⁻¹
